Assays:
[1] = target: T1, full-length hCDCP1 with N-terminal c-Myc tag (expression vector GS01), on Ba/F3-hCDCP1 cells or … (human, UniProt Q9H5V8 30-836); test: flow cytometry on Ba/F3-hCDCP1 cells
T1 construct: also called human CDCP1; hCDCP1 forced expression cells
T1 sequence: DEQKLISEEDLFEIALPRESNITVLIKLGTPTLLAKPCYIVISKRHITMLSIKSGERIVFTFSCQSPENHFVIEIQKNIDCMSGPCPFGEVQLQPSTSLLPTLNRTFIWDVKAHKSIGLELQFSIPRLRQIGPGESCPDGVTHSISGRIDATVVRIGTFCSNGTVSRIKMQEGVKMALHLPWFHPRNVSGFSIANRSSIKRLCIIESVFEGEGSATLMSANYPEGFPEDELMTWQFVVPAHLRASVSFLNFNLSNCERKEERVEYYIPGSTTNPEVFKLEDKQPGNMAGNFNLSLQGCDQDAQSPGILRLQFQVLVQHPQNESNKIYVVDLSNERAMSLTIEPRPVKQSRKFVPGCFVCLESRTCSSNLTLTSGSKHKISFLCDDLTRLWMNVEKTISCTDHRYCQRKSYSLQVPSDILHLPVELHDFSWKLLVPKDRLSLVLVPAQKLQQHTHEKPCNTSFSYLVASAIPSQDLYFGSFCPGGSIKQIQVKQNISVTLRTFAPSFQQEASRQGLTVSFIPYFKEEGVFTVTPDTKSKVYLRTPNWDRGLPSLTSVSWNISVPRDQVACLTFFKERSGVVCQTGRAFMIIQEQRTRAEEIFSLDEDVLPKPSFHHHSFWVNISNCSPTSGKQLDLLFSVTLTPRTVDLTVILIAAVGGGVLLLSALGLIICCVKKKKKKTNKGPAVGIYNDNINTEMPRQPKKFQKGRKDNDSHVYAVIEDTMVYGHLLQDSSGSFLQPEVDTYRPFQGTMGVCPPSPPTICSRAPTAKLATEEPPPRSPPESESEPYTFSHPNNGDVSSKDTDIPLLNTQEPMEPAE

[2] = target: T2, crab-eating macaque CDCP1 with N-terminal c-Myc tag (expression vector GS02), on crab-eating macaque … (crab-eating macaque (Macaca …, UniProt Q9H5V8 30-836 (human entry))); test: flow cytometry on crab-eating macaque CDCP1-expressing CHO-K1 cells
T2 chain: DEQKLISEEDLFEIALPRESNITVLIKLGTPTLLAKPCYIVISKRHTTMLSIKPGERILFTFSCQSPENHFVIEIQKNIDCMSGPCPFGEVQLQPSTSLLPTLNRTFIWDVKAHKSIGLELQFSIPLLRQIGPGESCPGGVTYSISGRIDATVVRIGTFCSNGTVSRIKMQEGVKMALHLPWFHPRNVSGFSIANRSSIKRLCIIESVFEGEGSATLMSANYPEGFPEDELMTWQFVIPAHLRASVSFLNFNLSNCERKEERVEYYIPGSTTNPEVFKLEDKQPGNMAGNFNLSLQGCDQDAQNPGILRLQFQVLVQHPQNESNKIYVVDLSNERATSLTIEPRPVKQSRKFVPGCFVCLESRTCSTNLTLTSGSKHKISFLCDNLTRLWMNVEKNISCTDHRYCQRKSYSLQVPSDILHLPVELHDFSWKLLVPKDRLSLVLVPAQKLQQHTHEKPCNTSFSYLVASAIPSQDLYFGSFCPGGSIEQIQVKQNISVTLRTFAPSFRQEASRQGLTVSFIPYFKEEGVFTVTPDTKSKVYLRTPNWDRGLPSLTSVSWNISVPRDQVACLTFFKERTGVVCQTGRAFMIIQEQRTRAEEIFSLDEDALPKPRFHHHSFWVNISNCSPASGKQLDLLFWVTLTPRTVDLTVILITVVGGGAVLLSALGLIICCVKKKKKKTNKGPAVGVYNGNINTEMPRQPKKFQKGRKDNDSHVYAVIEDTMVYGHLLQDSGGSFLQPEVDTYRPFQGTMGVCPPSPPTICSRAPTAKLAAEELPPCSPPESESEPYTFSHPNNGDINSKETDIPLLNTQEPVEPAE
Text: The hCDCP1-expressing CHO-K1 cells and the crab-eating macaque CDCP1-expressing CHO-K1 cells were exfoliated and dispersed using 0.25% trypsin/EDTA (Nacalai Tesque, Inc.), and were then reacted with various concentrations of individual mouse-human chimeric antibodies, namely, mh12A041HCori/LCori, mh14A025HCori/LCori, mh14A043HCori/LCori, mh14A055, mh14A063HCori/LCori, and mh14A091. Thereafter, the binding property of the antibodies was observed by flow cytometry (FIG. 9). As a result, these 6 antibodies all reacted with the crab-eating macaque CDCP1, and in particular, the 5 antibodies other than mh14A055 reacted with both the human CDCP1 and the crab-eating macaque CDCP1 at the same levels.

[3] = target: T3, hCDCP1 expressed by PC3 cells and other human cancer cell lines (endogenous) (human, UniProt Q9H5V8 30-836); test: cancer cells that express hCDCP1; method not given
T3 construct: Endogenous protein on cell lines; PC3 is said to express also the cleaved form; also called human CDCP1
T3 sequence: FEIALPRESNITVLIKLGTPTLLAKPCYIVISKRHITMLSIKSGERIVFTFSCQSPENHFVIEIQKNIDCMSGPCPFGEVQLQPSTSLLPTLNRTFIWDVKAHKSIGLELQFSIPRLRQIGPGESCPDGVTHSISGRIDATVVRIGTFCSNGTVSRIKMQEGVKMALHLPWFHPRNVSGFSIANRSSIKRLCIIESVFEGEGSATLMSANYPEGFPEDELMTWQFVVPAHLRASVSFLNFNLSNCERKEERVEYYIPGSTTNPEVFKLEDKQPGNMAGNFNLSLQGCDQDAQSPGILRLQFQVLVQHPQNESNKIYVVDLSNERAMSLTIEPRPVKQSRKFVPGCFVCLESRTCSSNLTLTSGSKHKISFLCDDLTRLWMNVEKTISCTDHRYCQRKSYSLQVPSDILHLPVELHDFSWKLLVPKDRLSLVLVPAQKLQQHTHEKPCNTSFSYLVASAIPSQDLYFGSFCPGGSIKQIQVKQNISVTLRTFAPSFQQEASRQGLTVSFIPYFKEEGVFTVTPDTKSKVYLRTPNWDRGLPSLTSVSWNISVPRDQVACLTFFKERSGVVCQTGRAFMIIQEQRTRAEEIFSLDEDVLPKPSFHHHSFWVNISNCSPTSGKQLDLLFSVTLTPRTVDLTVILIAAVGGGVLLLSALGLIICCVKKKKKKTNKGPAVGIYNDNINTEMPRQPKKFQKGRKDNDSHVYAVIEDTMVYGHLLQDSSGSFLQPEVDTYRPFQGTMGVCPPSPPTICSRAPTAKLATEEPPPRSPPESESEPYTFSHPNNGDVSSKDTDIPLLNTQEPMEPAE

B1: h14A043VH2/VL3 (antibody, human IgG1, kappa)
heavy: not shown
light: EIVLIQSPATLSLSPGERATLSCSASSSVSYLYWYQQKPGQAPRPWIYLTSNLASGVPARFSGSGSGTDFTLTISSLEPEDFAVYYCQQWSSNPFTFGGGTKVEIKRTVAAPSVFIFPPSDEQLKSGTASVVCLLNNFYPREAKVQWKVDNALQSGNSQESVTEQDSKDSTYSLSSTLTLSKADYEKHKVYACEVTHQGLSSPVTKSFNRGEC
notes: humanized antibody, human IgG1/kappa constant regions
binding result [1]: binds

B2: mh12A041HCori/LCori (antibody, human IgG1, kappa, V domains shown)
VH: EVQLQESGPGILQPSQTLSLTCSFSGFSLSTSGMGVSWIRQPSGKGLEWLAHIYWDDDKRYNPSLKSRLTISKDTSSNQVFLKITSVDTADTATYYCARSGSYYGSSLDCWGQGTTLTVSS
VL: DVLMTQTPLSLPVSLGDQASISCRSSQSIVHSNGNTYLEWYLQKPGQSPKLLIYKVSNRFSGVPDRFSGSGSGTDFTLKISRVEAEDLGVYYCFQGSHVPWTFGGGTKLEIKR
notes: mouse-human chimeric antibody, human IgG1/kappa constant regions; also called mh12A041HCori/LCori-biotin (biotinylated form)
binding result [2]: binds | binding result [1]: binds

B3: h14A063VH2/VL1 (antibody, human IgG1, kappa)
heavy: not shown
light: EIVLTQSPATLSLSPGERATLSCRASESVDSYGNSFMHWYQQKPGQAPRLLIFLASNLESGVPARFSGSGSRTDFTLTISSLEPEDFAVYYCQQNNEDPWTFGGGTKVEIKRTVAAPSVFIFPPSDEQLKSGTASVVCLLNNFYPREAKVQWKVDNALQSGNSQESVTEQDSKDSTYSLSSTLTLSKADYEKHKVYACEVTHQGLSSPVTKSFNRGEC
notes: as for B1
binding result [1]: binds

B4: h14A063VH3/VL2 (antibody, human IgG1, kappa)
heavy: not shown
light: EIVLTQSPATLSLSPGERATLSCRASESVDSYGNSFMHWYQQKPGQAPRLLIFLASNLESGVPARFSGSGSGTDFTLTISSLEPEDFAVYYCQQNNEDPWTFGGGTKVEIKRTVAAPSVFIFPPSDEQLKSGTASVVCLLNNFYPREAKVQWKVDNALQSGNSQESVTEQDSKDSTYSLSSTLTLSKADYEKHKVYACEVTHQGLSSPVTKSFNRGEC
notes: as for B1
binding result [1]: binds

B5: h14A063VH2/VL2 (antibody, human IgG1, kappa)
heavy: not shown
light: EIVLTQSPATLSLSPGERATLSCRASESVDSYGNSFMHWYQQKPGQAPRLLIFLASNLESGVPARFSGSGSGTDFTLTISSLEPEDFAVYYCQQNNEDPWTFGGGTKVEIKRTVAAPSVFIFPPSDEQLKSGTASVVCLLNNFYPREAKVQWKVDNALQSGNSQESVTEQDSKDSTYSLSSTLTLSKADYEKHKVYACEVTHQGLSSPVTKSFNRGEC
notes: as for B1
binding result [1]: binds

B6: h14A063VH3/VL1 (antibody, human IgG1, kappa)
heavy: not shown
light: EIVLTQSPATLSLSPGERATLSCRASESVDSYGNSFMHWYQQKPGQAPRLLIFLASNLESGVPARFSGSGSRTDFTLTISSLEPEDFAVYYCQQNNEDPWTFGGGTKVEIKRTVAAPSVFIFPPSDEQLKSGTASVVCLLNNFYPREAKVQWKVDNALQSGNSQESVTEQDSKDSTYSLSSTLTLSKADYEKHKVYACEVTHQGLSSPVTKSFNRGEC
notes: as for B1
binding result [1]: binds

B7: h14A063VH4/VL2 (antibody, human IgG1, kappa, V domains shown)
VH: EVQLVESGGGLVQPGGSLRLSCAASGFTFSSYTMSWVRQAPEKRLEWVAYISSGGGSTYYPDTVKGRFTISRDNAKNSLYLQMNSLRAEDTAVYYCARYDLGFAYWGQGTLVTVSS
VL: EIVLTQSPATLSLSPGERATLSCRASESVDSYGNSFMHWYQQKPGQAPRLLIFLASNLESGVPARFSGSGSGTDFTLTISSLEPEDFAVYYCQQNNEDPWTFGGGTKVEIKR
notes: humanized antibody, human IgG1/kappa constant regions; also called h14A063VH4/VL2-biotin (biotinylated form)
binding result [1]: binds

B8: h14A063VH4/VL1 (antibody, human IgG1, kappa, V domains shown)
VH: EVQLVESGGGLVQPGGSLRLSCAASGFTFSSYTMSWVRQAPEKRLEWVAYISSGGGSTYYPDTVKGRFTISRDNAKNSLYLQMNSLRAEDTAVYYCARYDLGFAYWGQGTLVTVSS
VL: EIVLTQSPATLSLSPGERATLSCRASESVDSYGNSFMHWYQQKPGQAPRLLIFLASNLESGVPARFSGSGSRTDFTLTISSLEPEDFAVYYCQQNNEDPWTFGGGTKVEIKR
notes: humanized antibody, human IgG1/kappa constant regions; also called h14A063VH4/VL1-biotin (biotinylated form)
binding result [1]: binds

B9: mh14A025HCori/LCori (antibody, human IgG1, kappa, V domains shown)
VH: EVQLQESGAELVRPGALVKLSCKASGFNIKDYYMHWVKQRPEQGLEWIGWIDPENGNTIYDPKFQGKASITADTSSNTAYLQLSSLTSEDTAVYYCGGLLYAMDYWGQGTSVTVSS
VL: DIQMTQTTSSLSASLGDRVTISCRASQDISNYLNWYQQKPDGTVKLLIYFTSRLHSGVPSRFSGSGSGTDYSLTISNLEQEDIATYFCQQGNTLPRTFGGGTKLEIRR
notes: mouse-human chimeric antibody, human IgG1/kappa constant regions; also called mh14A025HCori/LCori-biotin (biotinylated form)
binding result [2]: binds | binding result [1]: binds

B10: 25A11 antibody (antibody, human IgG1, kappa, V domains shown)
VH: QVQLQQPGAELVKPGASVKMSCKASGYTFTSYYMYWVKQRPGQGLEWIGEINPSHGGTNFNEKFKNKATLTVDKSSSTVYMQLSSLTSEDSAVYYCTRGGNYPYFAMDYWGQGTSVTVSS
VL: DIQMTQTTSSLSASLGDRVTISCRASQDISNYLNWYQQKPDGTVKLLIYYTSRLHSGVPSRFSGSGSGTDYSLTISNLEQEDIATYFCQQGNTLPWTFGGGTKLEIKR
notes: also called 25A11 biotin; 25A11-biotin (biotinylated form)
binding result [3]: binds

B11: mh14A043HCori/LCori (antibody, human IgG1, kappa, V domains shown)
VH: EVQLQESGAELVRPGALVKLSCKASGFNIKDYYMNWVKQRPEQGLEWIGWIDPENGNTIYDPKFQGKASITADTSSNTAYLQLSSLTSEDTAVYYCYGSSYRFTYWGQGTLVTVSS
VL: QIVLIQSPALMSASPGEKVTMTCSASSSVSYMYWYQQKPRSSPKPWIYLTSNLASGVPARFSGSGSGTSYSLTISSMEAEDAATYYCQQWSSNPFTFGSGTKLEIKR
notes: mouse-human chimeric antibody, human IgG1/kappa constant regions; also called mh14A043HCori/LCori-biotin (biotinylated form)
binding result [2]: binds | binding result [1]: binds

B12: mh14A063HCori/LCori (antibody, human IgG1, kappa, V domains shown)
VH: EVQLQESGGGLVQPGGSLKLSCAASGFTFSSYTMSWVRQTPEKRLEWVAYISNGGGSTYYPDTVKGRFTISRDNAKNTLYLQMSSLKSEDTAMYYCARYDLGFAYWGQGTLVTVSS
VL: NIVLTQSPASLAVSLGQRATISCRASESVDSYGNSFMHWYQQKPGQPPKLLIFLASNLESGVPARFSGSGSRTDFTLTIDPVEADDAATYYCQQNNEDPWTFGGGTNLEIKR
notes: mouse-human chimeric antibody, human IgG1/kappa constant regions; also called mh14A063HCori/LCori-biotin (biotinylated form)
binding result [2]: binds | binding result [1]: binds
